Four molecules from US20160340395, “POLYPEPTIDE TAGGING FUSIONS AND METHODS” (REGENTS OF THE UNIVERSITY OF MINNESOTA, published 2016) can be followed below.

In one data set the target is T1, RepB HUH domain (Streptococcus agalactiae, UniProt P13921 SEQ:1-132).
T1 chain: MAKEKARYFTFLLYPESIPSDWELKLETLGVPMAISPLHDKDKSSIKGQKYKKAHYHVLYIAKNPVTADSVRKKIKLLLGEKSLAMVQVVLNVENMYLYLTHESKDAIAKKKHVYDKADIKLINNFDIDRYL
As to the kind of experiment: covalent adduct by SDS-PAGE; 1 uM protein, 5 uM DNA, 30 min 37 C. Conditions: tags: N-terminal His6-SUMO; label: FAM. As to the method:
(§1) The HUH endonuclease-based protein tags described herein allow one to orthogonally label proteins in cells.
(§2) Unless otherwise noted, gel-shift assays were performed in HUH buffer; 50 mM Hepes pH 8, 50 mM NaCl, 1 mM MgCl₂ and 1 mM MnCl₂, incubated at 37° C. for 15 minutes unless otherwise noted, and quenched with 4× loading buffer. The reactions were analyzed by either electrophoresis on 4-20% polyacrylamide gels stained with Coomassie Blue or Bio-Rad Stain-Free gels. For comparison of covalent adduct formation of SNAP and DCV, 25 pmol of SNAP/DCV proteins were mixed with 100 pmol respective DNA-oligo in SNAP/HUH buffer. 4×SDS loading buffer was added at indicated times to quench. SNAP buffer: 50 mM Hepes pH8, 50 mM NaCl, and 5 mM β-mercaptoethanol. Specificity reactions of HUH-proteins with each target-oligo were performed in HUH buffer with 150 mM NaCl.

Data set [1] deals with T2, GeneA* HUH (Y131H) (PhiX174, UniProt P03631 SEQ:1-340).
T2 chain: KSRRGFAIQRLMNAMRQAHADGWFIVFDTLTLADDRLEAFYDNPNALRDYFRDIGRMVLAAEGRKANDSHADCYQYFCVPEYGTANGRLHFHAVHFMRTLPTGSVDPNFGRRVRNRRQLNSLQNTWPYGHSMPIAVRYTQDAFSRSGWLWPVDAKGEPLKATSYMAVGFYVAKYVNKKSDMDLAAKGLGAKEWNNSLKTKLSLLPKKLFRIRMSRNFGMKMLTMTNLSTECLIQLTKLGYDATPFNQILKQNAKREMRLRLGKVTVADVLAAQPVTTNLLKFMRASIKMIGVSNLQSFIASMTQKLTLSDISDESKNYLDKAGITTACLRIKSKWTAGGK
As to the kind of experiment: no cross-reactivity in mixture. Conditions: tags: N-terminal His6-SUMO; label: Cy5.

The target in data set [2] is T3, mMobA minimal relaxase domain (Escherichia coli, UniProt P07112 SEQ:1-186).
T3 chain: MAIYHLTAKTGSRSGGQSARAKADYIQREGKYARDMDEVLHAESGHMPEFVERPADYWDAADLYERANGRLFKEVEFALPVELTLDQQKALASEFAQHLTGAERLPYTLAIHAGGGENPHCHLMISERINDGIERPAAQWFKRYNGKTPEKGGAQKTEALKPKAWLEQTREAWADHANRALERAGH
The data set can be described thus: covalent adduct by SDS-PAGE; 1 uM protein, 5 uM DNA, 30 min 37 C. Conditions: tags: N-terminal His6-SUMO; label: Cy3. As to the method:
as §1, §2

Data set [3] addresses T2, GeneA* HUH (Y131H). As to the kind of experiment: covalent adduct by SDS-PAGE. Conditions: tags: N-terminal His6-SUMO; label: FAM. As to the method: The reaction time is extremely fast. […] Product is observed after a reaction time of only five minutes.
as §2

TGCTTCCGTACTACGACCCCCCA (ssDNA) [RepB target]: the binding result with RepB HUH domain is reported as “binds”.

Consider AAGTATTACCAG (ssDNA) [PCV2 ori target], for which, in the data set with GeneA* HUH (Y131H) [1], the binding result was “no binding”. Turning to CCAGTTTCTCGAAGAGAAACCGGTAAATGCGCCCT (ssDNA) [mMobA target], in data set [2], the binding result is listed as “binds”. For the molecule TCGACAACTTGATATTAATAACACTATAGAC (ssDNA) [GeneA target], the binding result with GeneA* HUH (Y131H) [3] was “binds”.
